Reference: FireProtDB (doi:10.1021/bi00066a003)
Values joined by “and” are separate entries in the source; they are usually repeats but may differ in a detail not shown here. Identical values can stand only once.

B1: Phosphoglycerate kinase, P18912 (parent)
chain: MNKKTIRDVDVRGKRVFCRVDFNVPMEQGAITDDTRIRAALPTIRYLIEHGAKVILASHLGRPKGKVVEELRLDAVAKRLGELLERPVAKTNEAVGDEVKAAVDRLNEGDVLLLENVRFYPGEEKNDPELAKAFAELADLYVNDAFGAAHRAHASTEGIAHYLPAVAGFLMEKELEVLGKALSNPDRPFTAIIGGAKVKDKIGVIDNLLEKVDNLIIGGGLAYTFVKALGHDVGKSLLEEDKIELAKSFMEKAKEKGVRFYMPVDVVVADRFANDANTKVVPIDAIPADWSALDIGPKTRELYRDVIRESKLVVWNGPMGVFEMDAFAHGTKAIAEALAEALDTYSVIGGGDSAAAVEKFGLADKMDHISTGGGASLEFMEGKQLPGVVALEDK

Variants of: B1
Conditions: Geobacillus stearothermophilus, pH 7.5, 25 °C, Fluorescence, TEA 50 mM, reversible: yes, structure 1PHP, whole UniProt chain shown

Variant	unfolding free energy (GdnHCl, transition: 3)	unfolding free energy (Urea, transition: 3) [kcal/mol]	unfolding free energy (GdnHCl, transition: 4)	unfolding free energy (Urea, transition: 4)
W290Y	11.4 kcal/mol and 8.2 kcal/mol	8.15		
W290Y W315Y F379W			4.95 kcal/mol and 10.8 kcal/mol and 8.93 kcal/mol	3.77 kcal/mol and 10.8 kcal/mol and 8.15 kcal/mol
